Laboratory results: US20250263467A1

Target: SARS-CoV-2 Spike protein on pseudotyped virus (SARS-CoV-2 (Wuhan-Hu-1)) (UniProt P0DTC2)
Test: cell-based or functional assay

Substance	maximum neutralization, VSV pseudotype, 293T ACE2 cells [%]	maximum neutralization, VSV pseudotype, A549-ACE2-TMPRSS2 clone 10 cells [%]	maximum neutralization, VSV pseudotype, Huh7 cells [%]	maximum neutralization, VSV pseudotype, MRC5-ACE2-TMPRSS2 cells [%]	maximum neutralization, VSV pseudotype, Vero E6-TMPRSS2 cells [%]	maximum neutralization, VSV pseudotype, Vero E6 cells [%]	EC50, neutralization of pseudotyped virus [µg/mL]
S309 rIgG1-LS (antibody)	34	42	78	45	96	> 99	
sotrovimab (antibody)							0.0241
